Our source for the depletion of EGFRt-expressing lymphocytes after 3 days in vitro (flow cytometry), 5 nM and 1 nM and reduction of eEGFRt+ cells after in vitro treatment (flow cytometry) values is patent US20230174622A1.

The assay deals with eEGFRt (modified EGFRt on edited T cells; variant not specified) (human). In words: cell-based or functional assay.

“αEGFR-SAP immunotoxin (biotinylated Cetuximab antibody combined with streptavidin-SAP conjugate, 1:1 molar ratio)” had a depletion of EGFRt-expressing lymphocytes after 3 days in vitro (flow cytometry), 5 nM and 1 nM of 50%; a reduction of eEGFRt+ cells after in vitro treatment (flow cytometry) of 1.8 fold.
